Experimental data from WO2018083080A2 (dated 2018).

Key:
[1] = biological target: T1, recombinant human CFP HIS-tagged (human, UniProt P27918 28-469); assay: flow cytometry; CFP-HIS on enriched mouse NK cells
T1 construct: Secreted from CHO cells, purified on Ni-NTA and by size exclusion; also called huCFP-HIS; HuCFP-HIS; not shown: HIS tag inserted through the reverse primer (C-terminal)

[2] = biological target: T1, recombinant human CFP HIS-tagged; assay: flow cytometry; CFP-HIS on cells

T1 sequence (P27918 28-469): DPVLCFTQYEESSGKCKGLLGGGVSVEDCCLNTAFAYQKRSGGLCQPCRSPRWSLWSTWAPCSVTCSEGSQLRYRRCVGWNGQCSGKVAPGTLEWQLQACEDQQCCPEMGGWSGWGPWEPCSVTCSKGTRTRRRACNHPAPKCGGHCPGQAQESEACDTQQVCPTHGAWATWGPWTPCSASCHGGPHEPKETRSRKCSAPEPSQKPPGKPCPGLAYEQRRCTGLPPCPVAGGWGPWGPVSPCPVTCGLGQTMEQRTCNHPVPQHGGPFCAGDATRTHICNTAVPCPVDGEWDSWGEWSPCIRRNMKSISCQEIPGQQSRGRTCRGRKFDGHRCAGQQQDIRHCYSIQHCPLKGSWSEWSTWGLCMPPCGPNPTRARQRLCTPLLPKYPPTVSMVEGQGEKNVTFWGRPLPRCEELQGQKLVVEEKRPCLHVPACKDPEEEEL

| Binder | binding result [1] | binding result [2] |
| --- | --- | --- |
| mouse NKp46 on Ncr1 WT/WT enriched mouse NK cells (receptor, UniProt Q8C567 17-325, looked up, whole, on cells; also called Ncr1 WT/WT NK cells) QRINTEKETLPKPIIWAKPSIMVTNGNSVNIWCQGAQSASEYQLYFEGSFFALERPKPSRSMNKVRFFISQMTSHTAGIYTCFYQSGELWSKSSNPLKLVVTGLYDTPNLWVYPRPEVTLGENVTFFCQLKTATSKFFLLKERGSNHIQNKYGNIQAEFPMGPVTRAHRGTYRCFGSYNDYAWSFPSEPVTLLITGGVENSSLAPTDPTSSLDYWEFDLSTNESGLQKDSAFWDHTTQNLIRIGLACIILITLVWLLTEDWLSKRKDHEEANRLTNWECRRRWRMQHYFEEEQRNAISMMELKATPGAL | binds |  |
| NKp30 on DOMsp30 cells (receptor, UniProt O14931 19-135, looked up, also called DOMsP cells expressing NKp30) LWVSQPPEIRTLEGSSAFLPCSFNASQGRLAIGSVTWFRDEVVPGKEVRNGTPEFRGRLAPLASSRFLHDHQAELHIRDVRGHDASIYVCRVEVLGLGVGTGNGTRLVVEKEHPQLG |  | no binding (tested: 10ug/ml) |
